Measured values published in the Human Domainome abundance scans (Beltran et al. 2025).

B1: Ankyrin-2, residues 3571 to 3650; numbered along this chain, Q01484 (parent)
chain: ERLAYIADHLGFSWTELARELDFTEEQIHQIRIENPNSLQDQSHALLKYWLERDGKHATDTNLVECLTKINRMDIVHLME
B2: Transcription elongation regulator 1-like protein, residues 448 to 504; numbered along this chain, Q5VWI1 (parent)
chain: LPLEERVTHFRDMLLERGVSAFSTWEKELHKIVFDPRYLLLNSEERKQIFEQFVKTR

Variants of: B1
Assay: abundance fitness (aPCA) (normalised: wild type 0, dead -1); higher = more abundant; growth selection in yeast, the domain comes from the species named
Settings: Homo sapiens

Abundance fitness: each site, then its substitutions
V76: K -0.467, G -0.216, H -0.084, R -0.223, Q -0.107, I 0.04, C -0.027, E -0.063, S -0.219, Y -0.196, M -0.099, P -0.226, A -0.091, N -0.249, W -0.05, F -0.102, T -0.223, L -0.081
D74: K -0.348, A -0.515, Y -0.862, W -0.573, V -0.682, Q -0.435, L -0.849, F -0.971, H -0.563, M -0.839, I -0.692, P -0.471, R -0.707, T -0.793, E -0.151, G -0.678, S -0.593, N -0.577
M73: V 0.035
I75: A 0.011, S -0.54, F -0.371, E -0.031, V 0.136, R -0.609, G -0.263, M 0.076, C -0.297
M79: K -0.23

Variants of: B2
Assay: as above
Settings: Homo sapiens

Abundance fitness, by site and new letter:
F10: H 0.065, G -0.727, Q -0.884
F50: Y 0.082, L -0.413, T -0.924, E -0.69, G -0.759, A -0.887, V -0.833, N 0.347, W -0.17
A21: F -0.593, W -0.594, S -0.303, G -0.365, Y -0.482, K -0.286
E5: Y -0.483, W -0.715, T -0.553, G -0.195, F -0.481, P -0.697, R -0.01, M -0.254, Q -0.357, A -0.73
R6: K -0.485, A 0.062
K27: V -0.422, E -0.165, W -0.799
P2: Q 0.364, R 0.776, S 1.09, L -0.147, C 0.766
E16: S -0.797, W -0.646, I -0.976, K 0.226, T -0.851, R -1.09, F -0.568, A -0.46, M -0.438
R37: C -0.75, L -0.952, Q -0.829, W -0.733
M13: T -0.759, A -0.896, E -0.582, L -0.415, F -0.765
S43: L -0.065, A 0.016, W -0.424, T -0.197, N -0.367
P36: V -0.717, R -0.504, L -0.714, K 0.011
V19: R -0.916, K -0.376, C -0.611, G -0.7, T -0.674
L14: T -0.528, H -0.997, A -0.701, R -0.739, W -0.093, D -0.484, C -0.561, P -0.251, M -0.066
L3: C -0.857, E 0.132, Y 0.138, H 0.663, Q 0.591, G -0.214
V33: P -0.112, I 0.129, C -0.514, R 0.108, M -0.227
E4: M -0.646, R -0.867, K 0.132
D35: V -0.836, E -0.667, G -0.757, W -0.861, S -0.944
F22: M -0.431, D 0.292, Q 0.199, C 0.078, I -0.797, T 0.048
R17: I -0.853, P -0.249, N -0.218, L -0.312, F -0.368, C -0.151, M -0.237
T8: C -0.372, I -0.386, S -0.149, N -0.275, M -0.396
E45: T -0.515, L -0.067, R -0.434, Q -0.004
